{
  "source": "patent US20120077751",
  "key": {"[1]": {"test_system": "GST-GluR23Y (GST-YKEGYNVYG) [GST: P08515]"}, "[2]": {"biological_target": "GST fusion protein of the GluR1 carboxyl tail (GST-GluR1CT) (UniProt P19490)", "sequence (P19490 827-907)": "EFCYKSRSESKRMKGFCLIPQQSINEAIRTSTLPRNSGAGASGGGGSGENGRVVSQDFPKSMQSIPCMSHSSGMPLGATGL"}, "[3]": {"test_system": "T1, GST-GluR23A (GST-AKEGANVAG)", "T1 sequence": "AKEGANVAG"}, "[4]": {"test_system": "GST back bone (GST) [GST: P08515]"}, "[5]": {"biological_target": "GST fusion protein of the GluR2 carboxyl tail (GST-GluR2CT) (UniProt P19491)", "sequence (P19491 834-883)": "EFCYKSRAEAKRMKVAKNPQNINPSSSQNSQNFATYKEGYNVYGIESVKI"}},
  "data": [
    {"substance": "active recombinant pp60 c-Src", "values": [
      {"measurement": "in vitro kinase assay, anti-phosphotyrosine immunoblot", "setting": "[1]", "result": "the recombinant Src kinase phosphorylated a GST fusion protein containing the nine amino-acid stretch including all three GluR2-unique tyrosine residues"},
      {"measurement": "in vitro kinase assay, anti-phosphotyrosine immunoblot", "setting": "[2]", "result": "GST-GluR2CT, but not GST-GluR1CT or GST alone, is specifically phosphorylated by Src kinase"},
      {"measurement": "in vitro kinase assay, anti-phosphotyrosine immunoblot", "setting": "[3]", "result": "Src-mediated phosphorylation was abolished when these tyrosine residues were mutated into alanines"},
      {"measurement": "in vitro kinase assay, anti-phosphotyrosine immunoblot", "setting": "[4]", "result": "GST-GluR2CT, but not GST-GluR1CT or GST alone, is specifically phosphorylated by Src kinase"},
      {"measurement": "in vitro kinase assay, anti-phosphotyrosine immunoblot", "setting": "[5]", "result": "GST-GluR2CT, but not GST-GluR1CT or GST alone, is specifically phosphorylated by Src kinase"}
    ]}
  ]
}
